From patent publication US20250145722A1 (TRUEBINDING, published 2025)

Key:
[1] = target: T1, human Galectin-3 (Gal3), full-length recombinant (human, UniProt P17931 2-250); test: blocking ELISA, Gal3 coated, biotin-APP695
T1 construct: treated here as one molecule; also called hGAL3; hGal3

[2] = target: T1, human Galectin-3 (Gal3), full-length …; test: blocking ELISA, Gal3 coated, biotin-TLR4
[3] = target: T1, human Galectin-3 (Gal3), full-length …; test: blocking ELISA, Gal3 coated, biotin-Abeta42 oligomer
[4] = target: T1, human Galectin-3 (Gal3), full-length …; test: cell-based or functional assay
[5] = target: T1, human Galectin-3 (Gal3), full-length …; test: blocking ELISA, Gal3 coated, TREM2-His
Description: The plate was incubated for an hour at room temperature with gentle rocking. Thereafter, the plate was washed three times with PBST. Anti-6× His tag antibody-HRP (Abcam, ab1269) was then added to the wells at 1:3000 dilution in 2% BSA in PBST. The plate was incubated at room temperature for an hour with gentle rocking and then washed three times with PBST.

[6] = target: T1, human Galectin-3 (Gal3), full-length …; test: blocking ELISA, Gal3 coated, biotin-Abeta42 peptide
[7] = target: T1, human Galectin-3 (Gal3), full-length …; test: blocking ELISA, Gal3 coated, VEGFR3-Fc, antibody 20 µg/ml
Description: (§1) After incubating the plate at 4° C. overnight, the plate was washed three times with PBST. The plate was then blocked for an hour with 2% BSA in PBST at room temperature with gentle rocking. […] The respective plates were incubated for an hour at room temperature with gentle rocking. Thereafter, the plate was washed three times with PBST. Peroxidase AffiniPure F(ab′)₂ Fragment Goat Anti-Human IgG (H+L) polyclonal antibody was then added to the wells at 1:4000 dilution in 2% BSA in PBST. The plate was incubated at room temperature for an hour with gentle rocking and then washed three times with PBST. TMB substrate was then added to each well. The reaction was stopped with 1M HCl and read using a plate reader (Molecular Devices, SpectraMax M4) at absorbance of 450 nm.

[8] = target: T1, human Galectin-3 (Gal3), full-length …; test: blocking ELISA, Gal3 coated, biotin-α-synuclein aggregates
Description: (§2) The plate was incubated for an hour at room temperature with gentle rocking. Thereafter, the plate was washed three times with PBST. […] The plate was incubated at room temperature for an hour with gentle rocking and then washed three times with PBST.

[9] = target: T1, human Galectin-3 (Gal3), full-length …; test: blocking ELISA, Gal3 coated, biotin-Tau aggregates
Description: as §2

[10] = target: T1, human Galectin-3 (Gal3), full-length …; test: blocking ELISA, Gal3 coated, EGFR-Fc, antibody 20 µg/ml
Description: as §1

[11] = target: T1, human Galectin-3 (Gal3), full-length …; test: blocking ELISA, Gal3 coated, PDGFR alpha-Fc, antibody 20 µg/ml
Description: as §1

[12] = target: T1, human Galectin-3 (Gal3), full-length …; test: blocking ELISA, Gal3 coated, PDGFR beta-Fc, antibody 20 µg/ml
Description: as §1

[13] = target: T1, human Galectin-3 (Gal3), full-length …; test: not stated. Exponent is printed without a minus sign; value taken as a negative power of ten because the column is a KD in M
[14] = target: T1, human Galectin-3 (Gal3), full-length …; test: blocking ELISA, Gal3 coated, biotin-TGFβR2
Description: After incubating the plate at 4° C. overnight, the plate was washed three times with 300 μl PBST. The plate was then blocked for an hour with 200 μl of 2% BSA in PBST at room temperature with gentle rocking. […] The plate was incubated for an hour at room temperature with gentle rocking. Thereafter, the plate was washed three times with 300 μl PBST. Avidin HRP (1:2000) was diluted in 2% BSA in PBST and then 40 μl added to the wells. The plate was incubated at room temperature for an hour with gentle rocking and then washed three times with 300 μl PBST. TMB substrate (50 μl) was then added to each well. The reaction was stopped with 1N HCl (25 μl) and read using a plate reader at absorbance of 450 nm.

mouse Gal3 = mouse Gal3 (mouse, UniProt P16110 2-264, limits assumed); test: not stated (FIG. 50)
mouse Gal3, sequence (P16110 2-264 limits assumed): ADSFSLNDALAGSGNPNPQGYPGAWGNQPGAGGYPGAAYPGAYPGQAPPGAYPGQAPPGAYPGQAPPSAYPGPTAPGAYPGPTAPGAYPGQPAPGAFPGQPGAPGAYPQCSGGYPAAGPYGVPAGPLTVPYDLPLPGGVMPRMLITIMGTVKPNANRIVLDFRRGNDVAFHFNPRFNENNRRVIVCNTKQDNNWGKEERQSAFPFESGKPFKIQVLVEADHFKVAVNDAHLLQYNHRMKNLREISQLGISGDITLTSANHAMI

[15] = target: T1, human Galectin-3 (Gal3), full-length …; test: not stated (FIG. 50)

T1 sequence (P17931 2-250 limits assumed): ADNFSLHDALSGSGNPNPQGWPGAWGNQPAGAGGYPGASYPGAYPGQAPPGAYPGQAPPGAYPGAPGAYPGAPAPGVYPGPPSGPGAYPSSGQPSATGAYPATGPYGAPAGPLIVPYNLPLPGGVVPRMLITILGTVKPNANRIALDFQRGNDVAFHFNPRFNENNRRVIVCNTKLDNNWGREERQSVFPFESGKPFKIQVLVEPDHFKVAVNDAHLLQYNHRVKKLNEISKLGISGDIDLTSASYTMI

B1: 19B5.2E6 (antibody, mouse IgG2a, V domains shown)
VH: QIQLVQSGPELKKPGETVKISCKASGYTFTTYAMSWVKQAPGKGLKWMGWINTYSGVPTYADDLKGRFAFSLETSASTAYLQINNLKNEDTATYFCARGPYAMDYWGQGTSVTVSS
VL: DIQMTQTTSSLSASLGDRVTISCSASQGINNYLNWYQQKPDGTVKLLIYYASSLHSGVPSRFSGSGSGTDYSLTISNLEPEDIATYYCQQYSQVPYTFGSGTKLEIKR
[1]
  % blocking of Gal3-APP695 binding: > 90%
[2]
  % blocking of Gal3-TLR4 binding: > 90%
[3]
  % blocking of Gal3-Abeta42 oligomer binding: > 90%
[4]
  decrease in TGFβ induction of ColA1 mRNA in LX2 cells (qRT-PCR): 85%
[5]
  % blocking of Gal3-TREM2 binding: > 90%
[6]
  % blocking of Gal3-Abeta42 peptide binding: > 90%

B2: 4G2.2G6 (antibody, human IgG4 S228P, kappa, V domains shown)
VH: QIQLVQSGPDLKKPGETVKISCKASGYTFTTYVMSWVKQAPGKDLKWMGWINTHSGVPTYADDFKGRFDFSLETSANTAFLQINNLKNEDTATYFCTRDGNDGDAMDNWGQGTSVTVSS
VL: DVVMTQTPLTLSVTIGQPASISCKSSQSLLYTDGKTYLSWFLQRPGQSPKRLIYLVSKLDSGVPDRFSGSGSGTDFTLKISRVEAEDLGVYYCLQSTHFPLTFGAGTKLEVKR
[7]
  % blocking of Gal3-VEGFR3 binding: < 30%

B3: 15G7.2A7 (antibody, human IgG4 S228P, kappa, V domains shown)
VH: EVQLQQSGPELVKPGASVKISCKASGYTFTDYYMNWVKQSHGKSLEWIGDINPNNGGTNYNQKFKGKATLTVDKSSSTAYMELRSLTSEDSAVYYCTSGYGFPYWGQGTLVTVSA
VL: DIQMNQSPSSLSASLGDTISITCRASQNINIWLSWYQQKPGNIPQLLIYKASNLHTGVPSRFSGSGSGTDFTLTISSLQPEDIATYYCLQGQSYPLTFGAGTKLVMKR
notes: also called 15FG7.2A7
[1]
  % blocking of Gal3-APP695 binding: > 90%
[2]
  % blocking of Gal3-TLR4 binding: > 90%
[8]
  % blocking of Gal3-α-synuclein aggregates binding: > 90%
[9]
  % blocking of Gal3-Tau aggregates binding: > 90%
[5]
  % blocking of Gal3-TREM2 binding: > 90%
[6]
  % blocking of Gal3-Abeta42 peptide binding: > 90%

B4: 13G4.2F8 (antibody, human IgG4 S228P, kappa, V domains shown)
VH: QVQLQQPGAELVKPGASVKLSCKASGYTFTSYWMHWVKQRPGQGLEWIGMIHPNSGSTDYNEKFKNKATLNVDKSSSTAYIQLSSLTSEDSAVYYCTRWGIYYYARDYWGQGTTLTVSS
VL: DIVMTQSQKFMSTSVGERVSITCKASQNVGTNVAWYQQKAGQSLELLIYGASNRHTGVPDRFTGSGSGTDFTLTITNVQSEDMTNYFCEQYSNFPLTFGAGTKLELKR
[10]
  % blocking of Gal3-EGFR binding: < 30%
[11]
  % blocking of Gal3-PDGFR alpha binding: < 30%
[8]
  % blocking of Gal3-α-synuclein aggregates binding: < 50%
[9]
  % blocking of Gal3-Tau aggregates binding: < 50%
[7]
  % blocking of Gal3-VEGFR3 binding: < 30%
[12]
  % blocking of Gal3-PDGFR beta binding: < 30%

B5: 24D12.2H9 (antibody, human IgG4 S228P, kappa, V domains shown)
VH: QVQLKQSGPGLVQPSQSLSITCTVSGFSLTSYGVHWVRQAPGKGLEWLGVIWSGGSTDYNAAFMSRLSISKDNSKSQVFFKMNSLQADDTAIYYCAKSPDGYDVAWFGYWGQGTLVTVSA
VL: DIVMTQSHKFMSTSVGDRVSITCKASQDVRTAVAWYQQKPGQSPKLLIYWASTRHTGVPDRFTGSGSGTDFTLTLSNVQSEDLADYFCQQYSSYPWTFGGGTKLEIKR
[10]
  % blocking of Gal3-EGFR binding: < 30%
[11]
  % blocking of Gal3-PDGFR alpha binding: < 30%
[7]
  % blocking of Gal3-VEGFR3 binding: < 30%
[12]
  % blocking of Gal3-PDGFR beta binding: < 30%

B6: mTB001 (antibody, mouse IgG2a, V domains shown)
VH: QIQLVQSGPELKKPGETVKISCKASGYTFTNYGMNWVKQAPGKGLKWMGWINTNTGEPTYVEEFKGRFAFSLETSASTAYLQINNLKNEDTATYFCAPYDNFFAYWGQGTLVTVSA
VL: DIVITQDELSNPVTSGESVSISCRSSKSLLYKDGKTYLNWFLQRPGQSPQLLIYLMSTHASGVSDRFSGSGSGTDFTLEISRVKAEDVGVYYCQQLVDYPLTFGAGTKLELKR
notes: also called mIMT001; murine IMT001
[10]
  % blocking of Gal3-EGFR binding: > 70%
[11]
  % blocking of Gal3-PDGFR alpha binding: > 70%
[4]
  decrease in TGFβ induction of ColA1 mRNA in LX2 cells (qRT-PCR): 63%
[12]
  % blocking of Gal3-PDGFR beta binding: > 70%

B7: F847C.11B1 (antibody, human IgG4 S228P, kappa, V domains shown)
VH: EVQLQQSGPELVKPGASVKISCKASGNTFTDHNMHWVKQSHGKSLEWIGYIYPYNGGTGYNQKFKSKATLTVDNSSSTVYMELRSLTSEDSAVYYCARGEYDYLAWFAYWGQGTLVTVSA
VL: EIVLTQSPASLSVTTGEKVTIRCITSIDIDDDMNWYQQKPGEPPKLLISEGNTLRPGVPSRFSSSGYGTDFVFTIENTLSEDVADYYCLQSDNKPLTFGAGTKLELKR
notes: also called 847.11B1
[3]
  % blocking of Gal3-Abeta42 oligomer binding: < 26%
[8]
  % blocking of Gal3-α-synuclein aggregates binding: < 50%
[9]
  % blocking of Gal3-Tau aggregates binding: < 50%
[5]
  % blocking of Gal3-TREM2 binding: < 47%
[6]
  % blocking of Gal3-Abeta42 peptide binding: < 46%
[13]
  Kd: 4.29 nM

B8: TB006 (antibody, V domains shown)
VH: QVQLVQSGAEVKKPGASVKVSCKASGYSFTNYYMHWVRQAPGQRLEWMGWIYPGSGNTNYNEKFQGRVTITADTSASTAYMELSSLRSEDTAVYYCSTAPGGFDVWGQGTTVTVSS
VL: DIVMTQTPLSLSVTPGQPASISCKSSKSLLHSDGITYLYWYLQKPGQSPQLLIYRMSNLASGVPDRFSGSGSGTDFTLKISRVEAEDVGVYYCAQMLEFPLTFGQGTKLEIKR
notes: Humanized variant derived from murine 4A11.2B5; also called 4A11.H3L1; IMT006
[1]
  % blocking of Gal3-APP695 binding: > 90%
[2]
  % blocking of Gal3-TLR4 binding: > 90%
[3]
  % blocking of Gal3-Abeta42 oligomer binding: > 90%
  IC50: 2.38 nM
[9]
  % blocking of Gal3-Tau aggregates binding: > 90%
[4]
  IC50 of TGF-β-induced pro-collagen production in LX-2 cells: 0.23 µg/mL
[14]
  IC50: 11.5 nM
Mouse Gal3
  Kd: 40 µM
[15]
  Kd: 8.9 nM
[5]
  % blocking of Gal3-TREM2 binding: > 90%
[6]
  % blocking of Gal3-Abeta42 peptide binding: > 90%

B9: 4A11.2B5 (antibody, human IgG4 S228P, kappa, V domains shown)
VH: QVQLQQSGPELVKPGASVKISCKASGYSFTNYYIHWVKQRPGQGLEWIGWIYPGSGNTNYNEKFKGKATLTADTSSSTTNMQLSSLTSEDSAVYYCSTAPGGFDVWGSGTTVTVSS
VL: DIVMTQAAFSNPVTLGTSASISCRSSKSLLHSDGITYLYWYLQRPGQSPQLLIYRMSNLASGVPDRFSGSGSGTDFTLRISRVEAEDVGVYYCAQMLEFPLTFGAGTKLELKR
[4]
  decrease in TGFβ induction of ColA1 mRNA in LX2 cells (qRT-PCR): 58%

B10: F847C.10B9 (antibody, human IgG4 S228P, kappa)
heavy: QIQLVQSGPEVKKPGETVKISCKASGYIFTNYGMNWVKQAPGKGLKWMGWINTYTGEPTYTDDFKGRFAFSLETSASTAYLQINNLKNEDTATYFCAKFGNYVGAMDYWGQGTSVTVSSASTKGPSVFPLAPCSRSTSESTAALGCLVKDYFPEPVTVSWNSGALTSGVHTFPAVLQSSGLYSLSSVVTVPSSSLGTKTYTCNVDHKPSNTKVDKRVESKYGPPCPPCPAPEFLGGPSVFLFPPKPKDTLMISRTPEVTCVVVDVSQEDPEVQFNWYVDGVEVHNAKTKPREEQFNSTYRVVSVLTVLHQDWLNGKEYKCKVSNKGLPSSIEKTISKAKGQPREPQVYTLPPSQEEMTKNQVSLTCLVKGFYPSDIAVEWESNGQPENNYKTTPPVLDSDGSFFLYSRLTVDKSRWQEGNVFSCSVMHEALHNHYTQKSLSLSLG
light: DIRMTQSPSSLSASLGDTITITCHASQNINVWLSWYQQKPGNIPKLLIYKASNLHTGVPSRFSGSGSGTGFTLTISSLQPEDIATYYCQQGQSYPYTFGGGTKLELKRTVAAPSVFIFPPSDEQLKSGTASVVCLLNNFYPREAKVQWKVDNALQSGNSQESVTEQDSKDSTYSLSSTLTLSKADYEKHKVYACEVTHQGLSSPVTKSFNRGEC
notes: also called 847.10B9
[8]
  % blocking of Gal3-α-synuclein aggregates binding: > 90%
[9]
  % blocking of Gal3-Tau aggregates binding: > 90%
[13]
  Kd: 13600 nM

B11: F847C.12F12 (antibody, V domains shown)
VH: QIQLVQSGPELKKPGETVKISCKASGYTFTNYGMNWVKQAPGKGLKWMGWINTYTGEPTYVDDFKGRFAFSLETSASTAYLRINNLKNEDTATYFCAKFGNYVGAMDYWGQGTSVTVSS
VL: DIQVIQSPSSLSASLGDTITITCHASQNINVWLSWYQQKPGNIPKLLIYKASNLHTGVPSRFSGSGSGTGFTLTISSLQPEDIATYYCQQGQSYPYTFGGGTKLELKR
notes: also called 84712F12
[8]
  % blocking of Gal3-α-synuclein aggregates binding: > 90%
[9]
  % blocking of Gal3-Tau aggregates binding: > 90%
[13]
  Kd: 19.2 nM
